The MegaScale stability set (Tsuboyama et al. 2023)

B1: EHEE_rd3_0053 (parent)
chain: TYTFKVDNKDQAKKAAKWAKKLGLSFQIEKHGDTFKITVQ
B2: EEHEE_rd4_0647 (parent)
chain: MQVTWGNVTVTFSNPEEAKKYAEKVARKLGGQVELHNGQFRIK

Variants of: B1
Assay: folding stability dG (cDNA display proteolysis); higher = more stable
Conditions: PBS, room temperature

Folding stability dG [kcal/mol]: each site, then its substitutions
I37: W 0.115; Y 0.365
T38: A 1.3; D 0.562; E 1.1; F 1.71; G 0.192; H 1.8; I 2.34; K 1.65; L 1.78; M 1.83; N 1.09; Q 1.57; R 1.72; S 1.81; V 2.01; W 1.76; Y 1.77
V39: A 0.718; C 1.68; D -0.839; F 2.06; G -0.471; H -0.097; I 2.82; L 2.23; M 1.86; N -0.981; P -0.963; Q -0.762; R -0.567; S -0.061; T 0.975; W 1.56; Y 1.68
Q40: A 2.46; C 2.75; D 1.98; E 2.19; F 3.05; G 2.55; H 2.56; I 2.49; K 2.45; L 2.41; M 2.6; N 2.4; P 1.14; R 2.59; S 2.77; T 2.62; V 2.41; W 3.28; Y 3

Variants of: B2
Assay: as above
Conditions: PBS, room temperature

Folding stability dG [kcal/mol]: each site, then its substitutions
M1: A 2.6; C 3.6; D 1.42; E 1.3; F 3.34; G 1.95; H 2.9; I 3.13; K 2.27; L 2.78; N 2.45; P 2.09; Q 2.03; R 2.57; S 2.61; T 3.28; V 3.11; W 3.72; Y 3.45
Q2: A 2.64; C 3.07; D 2.46; E 2.52; F 2.16; G 2.12; H 2.3; I 2.82; K 2.94; L 2.55; M 2.71; N 2.49; P 1.45; R 2.72; S 3.04; T 3.09; V 2.86; W 1.97; Y 2.23
V3: A 0.626; C 1.8; D 0.045; E 0.263; F 1.97; G 0.57; H 0.343; I 1.61; K 0.404; L 1.35; M 1.05; N 0.227; P 0.068; Q 0.078; R 0.122; S 0.229; T 0.641; W 0.9; Y 0.842
T4: A 2.49; D 0.672; E 1.66; F 2.24; G 1.46; H 2.54; I 2.97; K 2.58; L 2.6; M 2.58; N 2.18; P 0.446; Q 2.49; R 2.76; S 2.81; V 3.15; W 2.11; Y 2.21
W5: A 1.17; C 3.09; D 1.03; E 0.581; F 2.53; G 0.431; H 2.15; I 2.61; K 0.547; L 2.12; M 1.83; N 1.12; P 0.153; Q 0.719; R 0.966; S 0.968; T 1.19; V 2.64; Y 2.53
G6: A 2.25; C 3.2; D 2.86; E 1.96; F 2.55; H 2.48; I 1.59; K 2.1; L 2.49; M 2.32; N 2.38; P 0.79; Q 1.99; R 2.21; S 2.08; T 1.3; V 1.39; W 2.76
